From US20240398973A1, “ENGINEERED ANTIBODY COMPOUNDS AND CONJUGATES THEREOF” (Eli Lilly and Company, priority 2017, published 2024)
Read-outs that look alike come from different tables or passages of the source. One block for each substance: values may come before it.

How the values were obtained:
[1] = system: human primary PMNs; assay: PMN reactive oxygen species (ROS) production, luminol-amplified chemiluminescence; assay type: cell-based; settings: relative to 1000 nM fMLF
[2] = system: primary human polymorphonuclear neutrophil (PMN); assay: PMN chemotaxis (transwell, modified Boyden chamber); assay type: cell-based
Description: Chemotaxis is measured by observing primary human polymorphonuclear neutrophil (PMN) migration across transwell membranes (Corning #3415) towards antibody conjugates in a modified Boyden chamber assay. Approximately 2-4×10^5 cells from neutrophil-enriched preparations are seeded in upper transwell chambers on membranes with 3.0 um pores. The lower transwell chambers contain solutions of buffer alone and fMLF (N-formyl-Met-Leu-Phe peptide as positive control) and experimental antibody bioconjugates. […] Cell numbers are determined using standard curves. All data are transformed to percent relative to the maximal fMLF response for each individual experiment.

[3] = target: formyl peptide receptor 1 (FPR1) on primary human polymorphonuclear neutrophils (human) (UniProt P21462); assay: cell-based or functional assay
[4] = target: formyl peptide receptor 1 (FPR1) on primary human polymorphonuclear neutrophils (human) (UniProt P21462); assay: cell-based or functional assay; remark: listed apart in the source

- PMN ROS production at 1 nM (percent relative to 1000 nM fMLF) [3]: 1.2%
- PMN ROS production at 3 nM (percent relative to 1000 nM fMLF) [3]: 6.1%
- PMN ROS production at 12 nM (percent relative to 1000 nM fMLF) [3]: 17.8%
- PMN ROS production at 30 nM (percent relative to 1000 nM fMLF) [3]: 38.4%
- PMN ROS production at 100 nM (percent relative to 1000 nM fMLF) [3]: 52.7%
- PMN ROS production at 300 nM (percent relative to 1000 nM fMLF) [3]: 54.2%
- PMN ROS production at 1000 nM (percent relative to 1000 nM fMLF) [3]: 42.3%
Substance: Emibetuzumab-G4(PAA)-fMLFK-HC-124C-162C-378C (antibody)

- PMN ROS production at 1 nM (percent relative to 1000 nM fMLF) [3]: 0.9%
- PMN ROS production at 3 nM (percent relative to 1000 nM fMLF) [3]: 1.8%
- PMN ROS production at 12 nM (percent relative to 1000 nM fMLF) [3]: 0.9%
- PMN ROS production at 30 nM (percent relative to 1000 nM fMLF) [3]: 1.2%
- PMN ROS production at 100 nM (percent relative to 1000 nM fMLF) [3]: 1%
- PMN ROS production at 300 nM (percent relative to 1000 nM fMLF) [3]: 2.4%
- PMN ROS production at 1000 nM (percent relative to 1000 nM fMLF) [3]: 2.8%
- PMN ROS production at 1 nM (percent relative to 1000 nM fMLF) [4]: 25.8%
- PMN ROS production at 2 nM (percent relative to 1000 nM fMLF) [4]: 27.7%
- PMN ROS production at 3.9 nM (percent relative to 1000 nM fMLF) [4]: 28.2%
- PMN ROS production at 7.8 nM (percent relative to 1000 nM fMLF) [4]: 27.3%
- PMN ROS production at 15.6 nM (percent relative to 1000 nM fMLF) [4]: 29.6%
- PMN ROS production at 31.3 nM (percent relative to 1000 nM fMLF) [4]: 24.5%
- PMN ROS production at 62.5 nM (percent relative to 1000 nM fMLF) [4]: 23.4%
- PMN ROS production at 125 nM (percent relative to 1000 nM fMLF) [4]: 23.5%
- PMN ROS production at 250 nM (percent relative to 1000 nM fMLF) [4]: 23.9%
- PMN ROS production at 500 nM (percent relative to 1000 nM fMLF) [4]: 38.3%
- PMN ROS production at 1000 nM (percent relative to 1000 nM fMLF) [4]: 48.9%
Substance: Emibetuzumab-G4(PAA)-fMLFK-HC-378C (antibody)

The next lines start with the substance.

Substance: Emibetuzumab-G4(PAA)-UC-HC-124C-378C: unconjugated emibetuzumab IgG4(PAA) with HC 124C and 378C; HC SEQ ID NO:3, LC SEQ ID NO:5
- PMN ROS production ([1]; 1 nM, AUC 5 minutes (Table 10)): 25.1 percentage
- PMN ROS production ([1]; 1 nM, AUC 5 minutes (Table 17)): 0.5 percentage
- PMN ROS production ([1]; 2 nM, AUC 5 minutes (Table 10)): 25.5 percentage
- PMN ROS production ([1]; 3 nM, AUC 5 minutes (Table 17)): 0.6 percentage
- PMN ROS production ([1]; 3.9 nM, AUC 5 minutes (Table 10)): 25 percentage
- PMN ROS production ([1]; 7.8 nM, AUC 5 minutes (Table 10)): 25.6 percentage
- PMN ROS production ([1]; 12 nM, AUC 5 minutes (Table 17)): 0.5 percentage
- PMN ROS production ([1]; 15.6 nM, AUC 5 minutes (Table 10)): 24.9 percentage
- PMN ROS production ([1]; 30 nM, AUC 5 minutes (Table 17)): 0.6 percentage
- PMN ROS production ([1]; 31.3 nM, AUC 5 minutes (Table 10)): 25.3 percentage
- PMN ROS production ([1]; 62.5 nM, AUC 5 minutes (Table 10)): 24.5 percentage
- PMN ROS production ([1]; 100 nM, AUC 5 minutes (Table 17)): 0.5 percentage
- PMN ROS production ([1]; 125 nM, AUC 5 minutes (Table 10)): 24.6 percentage
- PMN ROS production ([1]; 250 nM, AUC 5 minutes (Table 10)): 24.9 percentage
- PMN ROS production ([1]; 300 nM, AUC 5 minutes (Table 17)): 0.7 percentage
- PMN ROS production ([1]; 500 nM, AUC 5 minutes (Table 10)): 23 percentage
- PMN ROS production ([1]; 1000 nM, AUC 5 minutes (Table 10)): 32.2 percentage
- PMN ROS production ([1]; 1000 nM, AUC 5 minutes (Table 17)): 0.5 percentage
- Relative Migration (PMN migration towards antibody conjugates) ([2]; 0.78 nM, relative to 3.12 nM fMLF (Table 6)): 5.48%
- Relative Migration (PMN migration towards antibody conjugates) ([2]; 1 nM, relative to 30 nM fMLF (Table 7)): 11.30%
- Relative Migration (PMN migration towards antibody conjugates) ([2]; 1.56 nM, relative to 3.12 nM fMLF (Table 6)): 8.05%
- Relative Migration (PMN migration towards antibody conjugates) ([2]; 3 nM, relative to 30 nM fMLF (Table 7)): 12.40%
- Relative Migration (PMN migration towards antibody conjugates) ([2]; 3.12 nM, relative to 3.12 nM fMLF (Table 6)): 7.24%
- Relative Migration (PMN migration towards antibody conjugates) ([2]; 6.25 nM, relative to 3.12 nM fMLF (Table 6)): 6.36%
- Relative Migration (PMN migration towards antibody conjugates) ([2]; 10 nM, relative to 30 nM fMLF (Table 7)): 12.27%
- Relative Migration (PMN migration towards antibody conjugates) ([2]; 12.5 nM, relative to 3.12 nM fMLF (Table 6)): 4.11%
- Relative Migration (PMN migration towards antibody conjugates) ([2]; 25 nM, relative to 3.12 nM fMLF (Table 6)): 5.70%
- Relative Migration (PMN migration towards antibody conjugates) ([2]; 30 nM, relative to 30 nM fMLF (Table 7)): 14.66%
- Relative Migration (PMN migration towards antibody conjugates) ([2]; 50 nM, relative to 3.12 nM fMLF (Table 6)): 12.02%
- Relative Migration (PMN migration towards antibody conjugates) ([2]; 100 nM, relative to 3.12 nM fMLF (Table 6)): 6.67%
- Relative Migration (PMN migration towards antibody conjugates) ([2]; 100 nM, relative to 30 nM fMLF (Table 7)): 14.89%
- Relative Migration (PMN migration towards antibody conjugates) ([2]; 300 nM, relative to 30 nM fMLF (Table 7)): 17.95%
- PMN migration (in words) ([2]; relative to conjugated antibodies): did not induce PMN migration

Substance: Emibetuzumab-G4(PAA)-fMLFK-HC-124C-378C (antibody)
- PMN ROS production at 1 nM (percent relative to 1000 nM fMLF) [3]: 0.6%
- PMN ROS production at 3 nM (percent relative to 1000 nM fMLF) [3]: 0.8%
- PMN ROS production at 12 nM (percent relative to 1000 nM fMLF) [3]: 0.9%
- PMN ROS production at 30 nM (percent relative to 1000 nM fMLF) [3]: 1.8%
- PMN ROS production at 100 nM (percent relative to 1000 nM fMLF) [3]: 3.4%
- PMN ROS production at 300 nM (percent relative to 1000 nM fMLF) [3]: 9.1%
- PMN ROS production at 1000 nM (percent relative to 1000 nM fMLF) [3]: 25.3%
- PMN ROS production at 1 nM (percent relative to 1000 nM fMLF) [4]: 27.4%
- PMN ROS production at 2 nM (percent relative to 1000 nM fMLF) [4]: 27.4%
- PMN ROS production at 3.9 nM (percent relative to 1000 nM fMLF) [4]: 26.5%
- PMN ROS production at 7.8 nM (percent relative to 1000 nM fMLF) [4]: 27.6%
- PMN ROS production at 15.6 nM (percent relative to 1000 nM fMLF) [4]: 28.3%
- PMN ROS production at 31.3 nM (percent relative to 1000 nM fMLF) [4]: 27.9%
- PMN ROS production at 62.5 nM (percent relative to 1000 nM fMLF) [4]: 27.7%
- PMN ROS production at 125 nM (percent relative to 1000 nM fMLF) [4]: 24.7%
- PMN ROS production at 250 nM (percent relative to 1000 nM fMLF) [4]: 29%
- PMN ROS production at 500 nM (percent relative to 1000 nM fMLF) [4]: 53.6%
- PMN ROS production at 1000 nM (percent relative to 1000 nM fMLF) [4]: 62.2%

Substance: Emibetuzumab-G4-fMLFK-HC-124C-157C-378C (antibody)
- PMN ROS production at 1 nM (percent relative to 1000 nM fMLF) [3]: 1.7%
- PMN ROS production at 3 nM (percent relative to 1000 nM fMLF) [3]: 11.9%
- PMN ROS production at 12 nM (percent relative to 1000 nM fMLF) [3]: 26.9%
- PMN ROS production at 30 nM (percent relative to 1000 nM fMLF) [3]: 50%
- PMN ROS production at 100 nM (percent relative to 1000 nM fMLF) [3]: 63.6%
- PMN ROS production at 300 nM (percent relative to 1000 nM fMLF) [3]: 58.7%
- PMN ROS production at 1000 nM (percent relative to 1000 nM fMLF) [3]: 51.8%
